For this experiment, the target named is Cry1Da receptor protein(s) / binding site in Spodoptera frugiperda (fall armyworm) brush border membrane vesicles (Spodoptera frugiperda). The experiment can be described thus: homologous competition: displacement of 0.5 nM 125I-Cry1Da core toxin from 150 ug/mL S. frugiperda BBMV.

As a reminder, the IC50 is the concentration needed to halve the response being measured.

Consider “Cry1Da core toxin protein (non-radiolabeled) (from UniProt P19415 28-594)”, for which the IC50 worked out at 5 nM.

The values above are taken from patent US20120331589A1.
